Publication PMC11322871, “AlphaFold2 assists in providing novel mechanistic insights into the interactions among the LUBAC subunits” (Acta Biochimica et Biophysica Sinica, 2024)
Values belong to the molecule of their own block, whether it stands above or below them.

T1: HOIP (466-695) (human, UniProt Q96EP0 466-695)
T1 construct: HOIP, human, residues 466-695 (HOIP-UBA together with HOIP 629-695); also called HOIP domain (residues 466-695)
T1 sequence (looked up): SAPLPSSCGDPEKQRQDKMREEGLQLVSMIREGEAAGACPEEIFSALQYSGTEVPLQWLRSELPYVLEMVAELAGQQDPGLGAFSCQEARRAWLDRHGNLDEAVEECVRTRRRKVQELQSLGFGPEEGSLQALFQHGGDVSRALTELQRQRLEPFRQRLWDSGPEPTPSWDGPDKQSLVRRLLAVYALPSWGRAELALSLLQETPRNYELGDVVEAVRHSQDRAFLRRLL

B1: HOIL-1L-UBL domain (residues 55-135) (domain or fragment, human, UniProt Q9BYM8-1 55-135, looked up)
chain: IRLWVSVEDAQMHTVTIWLTVRPDMTVASLKDMVFLDYGFPPVLQQWVIGQRLARDQETLHSHGVRQNGDSAYLYLLSARN
notes: HOIL-1L, human, UBL domain, residues 55-135; also called HOIL-UBL
B2: HOIP (629-695) (domain or fragment)
chain: PEPTPSWDGPDKQSLVRRLLAVYALPSWGRAELALSLLQETPRNYELGDVVEAVRHSQDRAFLRRLL

Key:
[1] = molecular target: HOIP-UBA domain (residues 466-629) (human) (UniProt Q96EP0); test: SPR; Biacore T200; the HOIL-1L and SHARPIN constructs mixed at the same concentration and incubated at 16°C for 2 h before analysis against HOIP-UBA (466-630); who was immobilised is not stated
[2] = molecular target: B1; test: ITC; MicroCal PEAQ-ITC; cell and syringe not stated
[3] = molecular target: B1; test: SPR; Biacore T200; HOIL-1L-UBL immobilised on the sensor chip, HOIP fragments flowed over
HOIP (466-695) [4] = molecular target: T1, HOIP (466-695); test: ITC; MicroCal PEAQ-ITC; cell and syringe not stated; conditions: both partners purified
HOIP (466-695) [5] = molecular target: T1, HOIP (466-695); test: SPR; Biacore T200; HOIL-1L-UBL immobilised on the sensor chip, HOIP fragments flowed over; conditions: both partners purified

- Kd [1]: 496 nM
Molecule: HOIL-1L (5-135) and SHARPIN (127-309), containing the LTM domain, mixed before SPR (from UniProt Q9BYM8-1 5-135; Q9H0F6 127-309) (complex)

- Kd [1]: 72.1 nM
Molecule: HOIL-1L-UBL and SHARPIN-UBL without the LTM domain, mixed before SPR (from UniProt Q9BYM8-1 55-135; Q9H0F6 206-309) (complex)

- Kd [2]: 4300 nM
- Kd [3]: 543 nM
Molecule: HOIP-UBA domain (residues 466-629) (from UniProt Q96EP0 466-629) (domain or fragment)

Molecule: B1
- Kd (HOIP (466-695) [4]): 800 ± 200 nM
- Kd (HOIP (466-695) [5]): 359 nM

Molecule: B2
- Kd ([3]; both partners purified): 989 nM
